Source: paper PMC10269814, “New Perspectives on Escherichia coli Signal Peptidase I Substrate Specificity: Investigating Why the TasA Cleavage Site Is Incompatible with LepB Cleavage” (Microbiology Spectrum, 2023)
Converted amounts (≈) assume the structure as drawn. “And” between values parts separate entries of the source, which are not always exact repeats. Equal entries are not always repeated. Ends that are not written are not given here. Peptide text beside a SMILES is read from it.

What was measured:
LepB Δ2-76 = molecular target: T1, LepB Δ2-76 (Escherichia coli, UniProt P00803); experiment: biochemical
T1 construct: made in house; host or cells: E. coli BL21(DE3)
Method: The cleavage of the fluorescent peptide, Dabcyl-[…]-Edans, by LepB leads to an increase in relative fluorescence over time. If the ability of LepB to cleave this peptide is inhibited, the increase in relative fluorescence per second should decrease in a concentration-dependent manner.
A reaction in a 100-μL reaction mixture in phosphate-buffered saline (PBS) (pH 7.4) containing 0.1% Triton X-100 was initiated by adding 450 nM LepB Δ2-76 to a black, clear-bottom 96-well plate (Corning, Corning, NY, USA). In triplicate, wells contained a 2-fold serial dilution of the peptide being tested from 0.5 mg/mL and 10 μM fluorescent peptide, Dabcyl-[…]-Edans (Mimotopes, Mulgrave, VIC, Australia). While the peptide containing the two fluorophores is intact, the Edans emission is quenched by Dabcyl through FRET. However, once the peptide is cleaved by LepB, the fluorophores are no longer in close enough proximity for the transfer of energy and the fluorescence emission of Edans is recorded. The cleavage of the fluorescent peptide by LepB was recorded using an excitation wavelength of 340 nm and an emission wavelength of 490 nm recorded every 2 min for 30 min in a Tecan Infinite 200 Pro plate reader. Data were analyzed using the formula [(RFU2 − RFU1)/(time2 − time1)] = RFU/s on the linear portion of the reaction (where RFU stands for relative fluorescent units), and the absolute IC50 was determined using the simple linear regression analysis on Prism 9.

[1] = molecular target: T2, LepB Δ2-76 His-SUMO (Escherichia coli signal peptidase I) (Escherichia coli, UniProt P00803); experiment: biochemical; assay type: binding
T2 construct: purchased Sapphire Bioscience
Text: Surface plasmon resonance (SPR) analysis on a Pioneer FE system (Sartorius, Göttingen, Germany) was used to determine the on- and off-rates of custom peptides (Mimotopes, Mulgrave, VIC, Australia) with purchased LepB (Sapphire Bioscience, Redfern, NSW, Australia) ([9]). Briefly, LepB Δ2-76 His-SUMO was immobilized onto a CDH chip (Sartorius, Göttingen, Germany) onto flow cells 1 and 3 by an amine coupling reaction using 0.2 M 1-ethyl-3-[(3-dimethylamino)propyl]-carbodiimide (EDC) and 0.05 M N-hydroxysuccinimide (NHS). The EDC-NHS mix was caused to flow over at 15 μL/min for 100 s, LepB was injected at 10 μL/min for 10 min, and then ethanolamine was caused to flow over at 10 μL/min for 10 min. Flow cell 2 was used as a reference cell, and no LepB was injected over this cell. The assay was performed using a OneStep assay method with 75% of the loop. Peptides were caused to flow over the flow cells at a concentration of 50 μM at a flow rate of 50 μL/min with a dissociation period of 180 s. A regeneration cycle at a flow rate of 50 μL/min for 3 min with Tris-EDTA (TE) was completed after every cycle. Data were collected in triplicate, and analysis was completed with the Qdat analysis software (Sartorius, Göttingen, Germany; see Fig. S1 in the supplemental material).

[2] = test system: E. coli MG1655 (empty pBAD) and E. coli BL21(DE3) (empty pET15b); experiment: MIC assay against E. coli; assay type: cell-based, Escherichia coli; details: rich (Mueller-Hinton) and M9 minimal media, with or without subinhibitory DMSO (5%); overnight 37°C; peptides 08 and 10 from 0.5 mg/mL, 11 from 1 mg/mL
Method: (§1) The resistance to the peptides was determined using MIC methods as previously described ([31]). Briefly, 5 × 10^5 cells were added to a 96-well plate which contained a peptide 2-fold serially diluted in either M9 minimal medium containing 5% DMSO and 0.2% glucose or Mueller-Hinton medium containing 5% DMSO. Plates were incubated overnight at 37°C, and the MIC result was scored as the last set of wells that contained no growth of bacteria. Bacteria tested were E. coli MG1655 containing an empty pBAD plasmid, E. coli BL21(DE3) containing an empty pET15b plasmid, S. aureus FDA209, and S. aureus USA300. Peptides 08 and 10 were tested from 0.5 mg/mL, and peptide 11 was tested from 1 mg/mL.

[3] = test system: Staphylococcus aureus USA300; assay type: cell-based; details: strain USA300, rich medium, subinhibitory DMSO (5%), overnight 37°C
Method: as §1

[4] = test system: Staphylococcus aureus FDA209; assay type: cell-based; details: strain FDA209, rich medium, subinhibitory DMSO (5%), overnight 37°C
Method: as §1

[5] = molecular target: LepB Δ2-76 His-SUMO (Escherichia coli) (UniProt P00803); experiment: SPR; LepB Δ2-76 His-SUMO amine-coupled (EDC/NHS) to a CDH chip, Pioneer FE; OneStep method with 75% of the loop; peptides flowed at 50 μM, 50 μL/min, 180 s dissociation; regeneration with Tris-EDTA; triplicate
[6] = molecular target: LepB Δ2-76 (Escherichia coli (strain DH5α)) (UniProt P00803)

| koff [5] [s⁻¹] | kon [5] [M⁻¹ s⁻¹] | IC50 of LepB cleavage of the fluorescent peptide Dabcyl-DAPPAKAA-Edans (FRET enzyme assay) [6] [µg/mL] | Molecule | IC50 (LepB Δ2-76) [µM] | Kd [1] [µM] | further results |
| --- | --- | --- | --- | --- | --- | --- |
|  |  |  | VGGGTWAAIEEGKL [Peptide 04] | 1680 | 8.83 ± 2.59 |  |
|  |  |  | GGGTWAAIE [Peptide 06] | 4520 | 17.3 ± 0.2 |  |
|  |  |  | GGTWAAIE [Peptide 10] |  |  | MIC [2]: No MIC was observed; Kd off-rate ([1]; SPR OneStep, LepB amine-coupled to CDH chip, peptide 50 μM, dissociation 180 s, mean ± standard error, triplicate): 0.00421 s⁻¹ and 0.00421 ± 0.00049 s⁻¹; Ka on-rate ([1]; SPR OneStep, Pioneer FE, LepB amine-coupled to CDH chip, peptide 50 μM, flow 50 μL/min, mean ± standard error, triplicate): 4770 ± 590 M⁻¹ s⁻¹ |
|  |  |  | GGTWAAFE [Peptide 05] | 967 |  |  |
|  |  |  | TWAAFN [Peptide 07] | 1970 | 5.38 ± 0.2 |  |
|  |  |  | VGGGTWAAFETL [Peptide 02] | 1010 | 12.8 ± 2.55 |  |
|  |  |  | GGGTWAAFEEGK [Peptide 01] | 1600 | 10.3 |  |
|  |  |  | GGTWAAFNDV [Peptide 03] | 1160 | 8.71 ± 2.14 |  |
|  |  |  | TWAAIE [Peptide 08] | 647 | 0.7 ± 0.35 |  |
|  |  |  | C[C@H](N)C(=O)N[C@@H](C)C(=O)N[C@@H](Cc1ccccc1)C(=O)N[C@@H](CCC(=O)O)C(=O)O [Peptide 11] (H-AAFE-OH) | 3790 | 18.5 ± 0.62 | MIC [3]: 1000 µg/mL (≈ 2290 µM); MIC [4]: 1000 µg/mL (≈ 2290 µM) |
| 0.947 | 146000 | 1210 | GGTWAAFNDV [peptide 03] |  |  |  |
| 0.0434 | 4440 | 1930 | GGGTWAAFEEGK [peptide 01] |  |  |  |
| 0.00239 | 2500 | 446 | TWAAIE [peptide 08] |  |  |  |
|  |  | 810 | GGTWAAFE [peptide 05] |  |  |  |
| 0.321 | 60400 | 1390 | TWAAFN [peptide 07] |  |  |  |
| 0.442 | 15900 | 1660 | AAFE [peptide 11] |  |  |  |
| 0.17 | 26400 | 2340 | VGGGTWAAIEEGKL [peptide 04] |  |  |  |
| 0.0208 | 1200 | 3890 | GGGTWAAIE [peptide 06] |  |  |  |
| 0.0147 | 1140 | 1220 | VGGGTWAAFETL [peptide 02] |  |  |  |
